In article PMC10134200 (Cell Insight, 2023):

Target: GST-CaM (glutathione S-transferase-tagged calmodulin) (UniProt P0DP23 1-149)
Experiment: pull-down

B1: His-P3CP (His-tagged TRPP3 C-terminal peptide I560-K660) (domain or fragment)
chain: INDTYSEVKEELAGQKDELQLSDLLKQGYNKTLLRLRLRKERVSDVQKVLQGGEQEIQFEDFTNTLRELGHAEHEITELTATFTKFDRDGNRILDEKEQEK
- binding result: binds
